# B1: TRIM63 (parent)
# chain: FRCPTCRHEVIMDRHGVYGLQRNL
# Variants of: B1
# Assay: protein stability index of a GFP-peptide fusion (GPS, HEK-293T) (PSI 1-6); higher = more stable
# Conditions: c terminus: a fixed tail appended
# 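Note: lentivirally expressed fusions sorted by FACS into six bins by GFP to DsRed ratio, PSI derived from sequencing read proportions per bin multiplied by bin number.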
row,Variant,protein stability index
1,FRCPTCRHEVIMVRHGVYGLQRNL [D13V],1.32
2,FRCPTCRHEVIMTRHGVYGLQRNL [D13T],1.9
3,FRCPTCRHEVIMWRHGVYGLQRNL [D13W],2.09
4,FRCPTCRHEVIMYRHGVYGLQRNL [D13Y],1.69
5,FRCPTCRHEVIMDRHYVYGLQRNL [G16Y],2.49
6,FRCPTCRHEVIMDRHVVYGLQRNL [G16V],1.69
7,FRCPTCRHEVIMDRHMVYGLQRNL [G16M],2.15
8,FRCPTCRHEVIMDRHCVYGLQRNL [G16C],2.42
9,FRCPTCRHEVIMDRHHVYGLQRNL [G16H],2.34
10,FRCPTCRHEVIMDRHPVYGLQRNL [G16P],2.25
11,FRCPTCRHEVIMDRHNVYGLQRNL [G16N],2.2
12,FRCPTCRHEVIMDRHKVYGLQRNL [G16K],2.39
13,FRCPTCRHEVIMDRHIVYGLQRNL [G16I],2.15
14,FRCPTCRHEVIMDRHAVYGLQRNL [G16A],2.15
15,FRCPTCRHEVIMDRHRVYGLQRNL [G16R],1.83
16,FRCPTCRHEVIMDRHLVYGLQRNL [G16L],2.21
17,FRCPTCRHEVIMDRHSVYGLQRNL [G16S],1.97
18,FRCPTCRHEVIMDRHDVYGLQRNL [G16D],2.47
19,FRCPTCRHEVIMDRHFVYGLQRNL [G16F],2.65
20,FRCPTCRHEVIMDRHTVYGLQRNL [G16T],1.65
21,FRCPTCRHEVIMDRHQVYGLQRNL [G16Q],2.33
22,FRCPTCRHEVIMDRHEVYGLQRNL [G16E],1.87
23,FRCPTCRHEVIMDRHWVYGLQRNL [G16W],2.31
24,FRCPTCRHEVIMDRHGVFGLQRNL [Y18F],2.13

row,Variant,protein stability index
1,FRCPTCRHEVIMDRHGVQGLQRNL [Y18Q],3.53
2,FRCPTCRHEVIMDRHGVKGLQRNL [Y18K],1.98
3,FRCPTCRHEVIMDRHGVMGLQRNL [Y18M],3.62
4,FRCPTCRHEVIMDRHGVVGLQRNL [Y18V],1.67
5,FRCPTCRHEVIMDRHGVLGLQRNL [Y18L],2.54
6,FRCPTCRHEVIMDRHGVDGLQRNL [Y18D],1.73
7,FRCPTCRHEVIMDRHGVWGLQRNL [Y18W],1.94
8,FRCPTCRHEVIMDRHGVRGLQRNL [Y18R],2.08
9,FRCPTCRHEVIMDRHGVHGLQRNL [Y18H],1.87
10,FRCPTCRHEVIMDRHGVCGLQRNL [Y18C],2.06
11,FRCPTCRHEVIMDRHGVTGLQRNL [Y18T],2.69
12,FRCPTCRHEVIMDRHGVAGLQRNL [Y18A],1.98
13,FRCPTCRHEVIMDRHGVEGLQRNL [Y18E],3.06
14,FRCPTCRHEVIMDRHGVIGLQRNL [Y18I],1.86
15,FRCPTCRHEVIMDRHGVPGLQRNL [Y18P],2.23
16,FRCPTCRHEVIMDRHGVGGLQRNL [Y18G],2.31
17,FRCPTCRHEVIMDRHGVSGLQRNL [Y18S],2.62
18,FRCPTCRHEVIMDQHGVYGLQRNL [R14Q],2.52
19,FRCPTCRHEVIMDLHGVYGLQRNL [R14L],2.05
20,FRCPTCRHEVIMDSHGVYGLQRNL [R14S],3.39
21,FRCPTCRHEVIMDCHGVYGLQRNL [R14C],1.63
22,FRCPTCRHEVIMDHHGVYGLQRNL [R14H],1.71
23,FRCPTCRHEVIMDVHGVYGLQRNL [R14V],1.54
24,FRCPTCRHEVIMDIHGVYGLQRNL [R14I],1.96

row,Variant,protein stability index
1,FRCPTCRHEVIMDKHGVYGLQRNL [R14K],2.07
2,FRCPTCRHEVIMDGHGVYGLQRNL [R14G],2.01
3,FRCPTCRHEVIMDAHGVYGLQRNL [R14A],1.99
4,FRCPTCRHEVIMDNHGVYGLQRNL [R14N],2.16
5,FRCPTCRHEVIMDMHGVYGLQRNL [R14M],1.91
6,FRCPTCRHEVIMDTHGVYGLQRNL [R14T],2.29
7,FRCPTCRHEVIMDWHGVYGLQRNL [R14W],1.72
8,FRCPTCRHEVIMDFHGVYGLQRNL [R14F],1.7
9,FRCPTCRHEVIMDPHGVYGLQRNL [R14P],2.05
10,FRCPTCRHEVIMDEHGVYGLQRNL [R14E],3.1
11,FRCPTCRHEVIMDDHGVYGLQRNL [R14D],2.5
12,FRCPTCRHEVIMDYHGVYGLQRNL [R14Y],1.95
13,FRCPTCRHEVIMDRHGVYCLQRNL [G19C],2.57
14,FRCPTCRHEVIMDRHGVYWLQRNL [G19W],3.11
15,FRCPTCRHEVIMDRHGVYSLQRNL [G19S],2.21
16,FRCPTCRHEVIMDRHGVYHLQRNL [G19H],2.51
17,FRCPTCRHEVIMDRHGVYFLQRNL [G19F],2.28
18,FRCPTCRHEVIMDRHGVYKLQRNL [G19K],2.07
19,FRCPTCRHEVIMDRHGVYDLQRNL [G19D],1.67
20,FRCPTCRHEVIMDRHGVYALQRNL [G19A],2.7
21,FRCPTCRHEVIMDRHGVYVLQRNL [G19V],2.14
22,FRCPTCRHEVIMDRHGVYMLQRNL [G19M],1.98
23,FRCPTCRHEVIMDRHGVYILQRNL [G19I],1.92
24,FRCPTCRHEVIMDRHGVYELQRNL [G19E],1.86

row,Variant,protein stability index
1,FRCPTCRHEVIMDRHGVYNLQRNL [G19N],2.21
2,FRCPTCRHEVIMDRHGVYYLQRNL [G19Y],2.92
3,FRCPTCRHEVIMDRHGVYLLQRNL [G19L],1.47
4,FRCPTCRHEVIMDRHGVYPLQRNL [G19P],2.25
5,FRCPTCRHEVIMDRHGVYQLQRNL [G19Q],2.46
6,FRCPTCRHEVIMDRHGVYTLQRNL [G19T],2.8
7,FRCPTCRHEVIMDRHGVYRLQRNL [G19R],2.31
8,FRCPTCRHEVIMDRHGVYGLQSNL [R22S],2.35
9,FRCPTCRHEVIMDRHGVYGLQFNL [R22F],1.84
10,FRCPTCRHEVIMDRHGVYGLQQNL [R22Q],2.24
11,FRCPTCRHEVIMDRHGVYGLQDNL [R22D],3.21
12,FRCPTCRHEVIMDRHGVYGLQYNL [R22Y],1.75
13,FRCPTCRHEVIMDRHGVYGLQMNL [R22M],1.45
14,FRCPTCRHEVIMDRHGVYGLQVNL [R22V],2.43
15,FRCPTCRHEVIMDRHGVYGLQENL [R22E],3.83
16,FRCPTCRHEVIMDRHGVYGLQCNL [R22C],2.29
17,FRCPTCRHEVIMDRHGVYGLQINL [R22I],3.38
18,FRCPTCRHEVIMDRHGVYGLQTNL [R22T],2.08
19,FRCPTCRHEVIMDRHGVYGLQLNL [R22L],1.34
20,FRCPTCRHEVIMDRHGVYGLQWNL [R22W],2.43
21,FRCPTCRHEVIMDRHGVYGLQGNL [R22G],1.98
22,FRCPTCRHEVIMDRHGVYGLQPNL [R22P],2.49
